Assay results taken from patent US20070100561A1, “Crystals of DPP-IV” (priority 2002, published 2007).

B1: ADA: adenosine deaminase, Sigma Type IV, from calf intestinal mucosa (bovine) (protein)
chain: AQTPAFNKPKVELHVHLDGAIKPETILYYGRKRGIALPADTPEELQNIIGMDKPLSLPEFLAKFDYYMPAIAGCREAVKRIAYEFVEMKAKDGVVYVEVRYSPHLLANSKVEPIPWNQAEGDLTPDEVVSLVNQGLQEGERDFGVKVRSILCCMRHQPSWSSEVVELCKKYREQTVVAIDLAGDETIEGSSLFPGHVKAYAEAVKSGVHRTVHAGEVGSANVVKEAVDTLKTERLGHGYHTLEDATLYNRLRQENMHFEVCPWSSYLTGAWKPDTEHPVVRFKNDQVNYSLNTDDPLIFKSTLDTDYQMTKNEMGFTEEEFKRLNINAAKSSFLPEDEKKELLDLLYKAYGMPSPA
B2: sDPP-IVdeglycos: enzymatically deglycosylated sDPP-IV (EndoF1-GST treated) (protein)
chain: GTDDATADSRKTYTLTDYLKNTYRLKLYSLRWISDHEYLYKQENNILVFNAEYGNSSVFLENSTFDEFGHSINDYSISPDGQFILLEYNYVKQWRHSYTASYDIYDLNKRQLITEERIPNNTQWVTWSPVGHKLAYVWNNDIYVKIEPNLPSYRITWTGKEDIIYNGITDWVYEEEVFSAYSALWWSPNGTFLAYAQFNDTEVPLIEYSFYSDESLQYPKTVRVPYPKAGAVNPTVKFFVVNTDSLSSVTNATSIQITAPASMLIGDHYLCDVTWATQERISLQWLRRIQNYSVMDICDYDESSGRWNCLVARQHIEMSTTGWVGRFRPSEPHFTLDGNSFYKIISNEEGYRHICYFQIDKKDCTFITKGTWEVIGIEALTSDYLYYISNEYKGMPGGRNLYKIQLSDYTKVTCLSCELNPERCQYYSVSFSKEAKYYQLRCSGPGLPLYTLHSSVNDKGLRVLEDNSALDKMLQNVQMPSKKLDFIILNETKFWYQMILPPHFDKSKKYPLLLDVYAGPCSQKADTVFRLNWATYLASTENIIVASFDGRGSGYQGDKIMHAINRRLGTFEVEDQIEAARQFSKMGFVDNKRIAIWGWSYGGYVTSMVLGSGSGVFKCGIAVAPVSRWEYYDSVYTERYMGLPTPEDNLDHYRNSTVMSRAENFKQVEYLLIHGTADDNVHFQQSAQISKALVDVGVDFQAMWYTDEDHGIASSTAHQHIYTHMSHFIKQCFSLP
B3: sDPP-IVglycos: glycosylated sDPP-IV (protein)
chain: B2 chain

What was measured:
DPP-IV = target: T1, DPP-IV (Homo sapiens, UniProt P27487); assay: Biacore surface plasmon resonance binding to immobilized DPP-IV; details: ADA from bovine
T1 construct: The ectodomain of DPP-IV, residues 31-766 (sDPP-IV), was amplified by PCR using a cDNA; made in house; host or cells: Pichia pastoris strain GS115 (pPICZα-A vector)
Experimental: DPP-IV was immobilized on a CM5 surface plasmon resonance sensor (Biacore) using standard amide coupling chemistry. The organic adlayer on this sensor type consists of carboxymethylated dextran (MW≈100 kDA). After activation of the carboxylic acid groups using carbodiimide/N-hydroxysuccinimide solutions, the surface was contacted with a DPP-IV solution (80 μl) containing≈100 μg/ml protein in acetate buffer (10 mM, pH 4.5). […] The surfaces of two flow cells were modified with protein. […] Hepes buffer (0.01 M Hepes, pH 7.4, 0.15 M NaCl, 3 mM EDTA, 0.005% polysorbate 20 (v/v)) was used as the running buffer. Diprotin-A was disolved directly in this buffer. […] The final inhibitor solution contained less than 0.1% DMSO. Binding experiments were carried out by contacting the immobilized protein surfaces with inhibitor solutions of varying concentrations at a flow rate of 10 μl/min or 30 μl/min. After each contact with inhibitor, the protein surfaces were regenerated by extensively washing with running buffer.

[1] = target: T2, sDPP-IV (soluble extracellular domain of human dipeptidyl peptidase IV) (Homo sapiens, UniProt P27487); assay: DPP-IV activity assay, fluorescence of products from Ala-Pro-7-amido-4-trifluoromethylcoumarin; type: biochemical; details: Lineweaver-Burk plots; 50 mM Tris/HCl pH 7.8, 100 mM NaCl, 0.1 mg/ml BSA, 0.5% dimethylformamide; 25° C.
T2 construct: The ectodomain of DPP-IV, residues 31-766 (sDPP-IV), was amplified by PCR using a cDNA; made in house; host or cells: Pichia pastoris strain GS115 (pPICZα-A vector)
Experimental: A 20 mM stock solution in 10% DMF is stored at −20° C. until use. […] DPP-IV activity assays were performed in 96 well plates in a total assay volume of 100 μl. The assay buffer consists of S-Buffer containing 0.1 mg/ml BSA. […] Initial rate constants are calculated by best fit linear regression.

| Molecule | koff (dissociation rate) of ADA (DPP-IV) [s⁻¹] | kon of ADA (DPP-IV) [M⁻¹ s⁻¹] | Km [1] [µM] | kcat [1] [s⁻¹] |
| --- | --- | --- | --- | --- |
| B1 | 8.75e-05 | 29800 |  |  |
| B2 |  |  | 17.2 | 43.1 |
| B3 |  |  | 15.5 | 37.3 |
